According to patent US20110229521A1, “NUTRITIONAL SUPPORT OF THE IMMUNE SYSTEM DURING ANTI-CANCER TREATMENT” (priority 2008, published 2011):

Experiment: Body weight, haematological evaluation and flow cytometry of tumor-bearing mice on supplemented diets with chemotherapy (Example 2)
Format: in vivo, C57BL/6 (H-2b) mice
Method: Mice. […] The animals were distributed into 7 different group diets. There was a control group that received the diet AIN 93 for adult rodents (maintenance). […] Control animals without chemotherapeutic treatment were run in parallel for all tested diets. Body weight was assessed every two days. Blood samples were obtained at day 2, 4 and 10 after the chemo-treatment and at sacrifice (14 or 28 days). An autopsy was performed and tumor mass was assessed.
Haematological evaluation.
Flow cytometric analysis.

B1: lactoferrin: diet with 25 mg/day of lactoferrin (protein, UniProt P24627 20-708, looked up)
Lactotransferrin: APRKNVRWCTISQPEWFKCRRWQWRMKKLGAPSITCVRRAFALECIRAIAEKKADAVTLDGGMVFEAGRDPYKLRPVAAEIYGTKESPQTHYYAVAVVKKGSNFQLDQLQGRKSCHTGLGRSAGWIIPMGILRPYLSWTESLEPLQGAVAKFFSASCVPCIDRQAYPNLCQLCKGEGENQCACSSREPYFGYSGAFKCLQDGAGDVAFVKETTVFENLPEKADRDQYELLCLNNSRAPVDAFKECHLAQVPSHAVVARSVDGKEDLIWKLLSKAQEKFGKNKSRSFQLFGSPPGQRDLLFKDSALGFLRIPSKVDSALYLGSRYLTTLKNLRETAEEVKARYTRVVWCAVGPEEQKKCQQWSQQSGQNVTCATASTTDDCIVLVLKGEADALNLDGGYIYTAGKCGLVPVLAENRKSSKHSSLDCVLRPTEGYLAVAVVKKANEGLTWNSLKDKKSCHTAVDRTAGWNIPMGLIVNQTGSCAFDEFFSQSCAPGADPKSRLCALCAGDDQGLDKCVPNSKEKYYGYTGAFRCLAEDVGDVAFVKNDTVWENTNGESTADWAKNLNREDFRLLCLDGTRKPVTEAQSCHLAVAPNHAVVSRSDRAAHVKQVLLHQQALFGKNGKNCPDKFCLFKSETKNLLFNDNTECLAKLGGRPTYEEYLGTEYVTAIANLKKCSTSPLLEACAFLTR
Chemotherapy treated group compared to the control, FIG. 11
  toxicity (bone marrow): less toxicity
Following chemotherapy, supplemented diet
  Global lymphocyte population: less depressed following chemotherapy
Oxaliplatin treated animals, supplemented diet
  leukocytic increase: tended to be higher
Second phase (tumor-induced toxicity)
  immune cell population / concentration: increase in their immune cell population
